Article PMC9439264 (Nature Communications, 2022)
Where “and” joins values, the source holds several entries; their conditions need not be identical. Equal values may be shown once.

Columns and labels:
[1] = molecular target: HA ectodomain of A/New Caledonia/20/1999 (H1N1), recombinant (Influenza A virus A/New …, UniProt Q6WG00, strain); assay: ELISA; conditions: both partners purified
[2] = molecular target: HA ectodomain of A/Beijing/262/1995 (H1N1), recombinant, with C-terminal thrombin site, foldon and 6-His-tag (Influenza A virus A/Beijing/262/1995 …, strain); assay: SPR; conditions: both partners purified
[3] = molecular target: HA of B/Florida/4/2006 (Yamagata) (Influenza B virus B/Florida/4/2006 …, UniProt E1TVD5, strain); assay: ELISA; conditions: both partners purified
[4] = molecular target: HA ectodomain of A/Beijing/262/1995 (H1N1) (Influenza A virus A/Beijing/262/1995 …, strain); assay: SPR; conditions: both partners purified
[5] = molecular target: T1, HA trimer of A/Beijing/262/1995 (H1N1), thrombin- and trypsin-treated, for the immune complex (Influenza A virus A/Beijing/262/1995 …); assay: cryo-EM structure; 12H5 Fab with thrombin- and trypsin-treated BJ/1995 HA trimer; conditions: both partners purified
T1 construct: copies: 3 + 3

[6] = molecular target: HA ectodomain of A/Beijing/262/1995 (H1N1), recombinant (Influenza A virus A/Beijing/262/1995 …, strain); assay: SPR; conditions: both partners purified
[7] = molecular target: HA of A/New Caledonia/20/1999 (H1N1) virus, in infected MDCK cells (Influenza A virus A/New …, UniProt Q6WG00, strain); assay: immunostaining of cells or tissue; conditions: one partner purified

B1: CH65, chimeric version (antibody, V domains shown)
VH: EVQLVQSGAEVKKPGASVKVSCKASGYTFTDYHINWVRQAPGQGLEWMGWIHPNSGDTNYAQKFQGWVTMTRDTAISTAYMEVNGLKSDDTAVYYCARGGLEPRSVDYYYYGMDVWGQGTTVTVSS
VL: SVLTQPPSVSVAPGQTARITCGGNDIGRKSVHWNQQKPGQAPVLVVCYDSDRPSGIPERFSGSNSGNTATLTISRVEAGDEADYYCQVWDSSSDHVIFGGGTKLTVL
binding result [1]: binds

B2: C12H5, human-mouse chimeric version of mAb 12H5 (variable region of mouse 12H5, human IgG1 constant region) (antibody, V domains shown)
VH: QIQLVQSGPELKKPGETVRISCKASGYTFTKNGMNWVQQAPGKGLKWVGWINTYTGEPSYADDFKGRFAFSLETSASTAYLQINNLKNEDMAAYFCARMVRDAMDFWGQGTSVTVSS
VL: DIVLTQSPASLAVSLGQRATISCKASQSVDFDGYNYLNWYQQKPGQPPKLLIYAASNLESGIPARFSGSGSGTDFTLNIHPVEEEDAATYFCQQSNEDPYTFGGGTKLEIK
notes: also called MAb C12H5; C12H5 IgG; copies: 2 + 2
koff [2]: 0.00089 s⁻¹ | kon [2]: 109000 M⁻¹ s⁻¹

B3: C12H5 (chimeric 12H5 monoclonal antibody: variable region of mouse 12H5, human IgG1 constant region) (antibody, V domains shown)
VH: B2 VH
VL: B2 VL
notes: also called MAb C12H5; source: CHO cells, transient transfection, purified from culture media (MAbselect Sure)
binding result [3]: no binding | Kd [4]: 8.85 nM | koff [4]: 0.0007 s⁻¹ and 0.00089 s⁻¹ and 0.00108 s⁻¹ | kon [4]: 109000 M⁻¹ s⁻¹ and 122000 M⁻¹ s⁻¹ and 95300 M⁻¹ s⁻¹

B4: 12H5 Fab (mouse antibody) (Fab, V domains shown)
VH: B2 VH
VL: B2 VL
notes: source: papain digestion of mAb 12H5 (mouse ascites, protein A), purified with DEAE-5PW
stoichiometry N [5]: 3 Fab per HA trimer

B5: C12H5 (human-mouse chimeric version of mAb 12H5) (antibody, V domains shown)
VH: B2 VH
VL: B2 VL
notes: also called chimeric 12H5 monoclonal antibody; MAb C12H5
Kd [6]: 8.1 nM | binding result [7]: binds | binding result [1]: binds
